Results published in publication PMC11321312.

Legend:
[1] = target: JGFN4 wild-type VHH (camelid (library from B cells of llamas and alpacas)); experiment: crystal structure; crystals grown from the isolated monomeric species (~12 mg/ml) with 5-fold molar excess of fentanyl; sitting drop, ambient temperature
[2] = target: JGFN4 wild-type VHH (camelid (library from B cells of llamas and alpacas)); experiment: crystal structure; crystals grown from the isolated (preformed) dimeric species (~12 mg/ml) with 5-fold molar excess of fentanyl; sitting drop, ambient temperature
[3] = target: JGFN4 N76D VHH (camelid (library from B cells of llamas and alpacas)); experiment: as above

B1: JGFN4 wild-type VHH (VHH)
VHH: QVQLVESGGGLAQAGGSLQLSCAASGSTSRVNAMGWYRQTPGKERELVAAIDRSGATVYSESVRGRFTISKNDAKNIVWLQMNNLTTEDTAVYYCRSGVLGSWGLGTQVTVSS
- stoichiometry N [1]: 2
- stoichiometry N [2]: 2

B2: JGFN4 N76D VHH (VHH)
VHH: QVQLVESGGGLAQAGGSLQLSCAASGSTSRVNAMGWYRQTPGKERELVAAIDRSGATVYSESVRGRFTISKNDAKDIVWLQMNNLTTEDTAVYYCRSGVLGSWGLGTQVTVSS
- stoichiometry N [3]: 2
